Here are results for 1 substance from US20250270280A1.

Experiment [1] concerns the target PA4C/H2-D^b (PA peptide with cysteine at position 4 presented by H2-D^b) (mouse; human).
For experiment [2], the target named is PA/H2-D^b (influenza Polymerase Acidic peptide … presented by H2-D^b) (mouse; human).
In experiment [3] the target is PA4C/H2-D^b (PA peptide with cysteine at position 4 presented by H2-D^b) (mouse; human). The source holds these as a separate data set.
The target in experiment [4] is PA4C7K/H2-D^b (mouse; human).
Experiment [5] addresses PA4C7L/H2-D^b (mouse; human).
Experiment [6] concerns the target PA4C7A/H2-D^b (mouse; human).
Experiment [7] concerns the target PA/H2-D^b (influenza Polymerase Acidic peptide … presented by H2-D^b) (mouse; human). The source holds these as a separate data set.
Experiment [8] deals with PA4C7K/H2-D^b (mouse; human). This is another data set of the same source.
Experiment [9] concerns the target PA4C7L/H2-D^b (mouse; human). The source holds these as a separate data set.
Experiment [10] deals with PA4C7A/H2-D^b (mouse; human). This is another data set of the same source.

Regarding 6218 TCR expressed on cells, the IL-2 in supernatant (ELISA), 5KC T cells with CD8αβ and the TCR + DC2.4 cells + graded peptide: EC50 [panel PA4C] in experiment [1] was 49 nM. Also, in [2], the IL-2 in supernatant (ELISA), 5KC T cells with CD8αβ and the TCR + DC2.4 cells + graded peptide: EC50 [panel PA] came to 50 nM. The tetramer MFI / TCRβ MFI, normalized to 6218 TCR-PA/H2-D^b in experiment [3] stood at 1.03; in [4], 0.33; in experiment [5] it was 0.03; in [6] it was 0.16; in experiment [7], 1. The IL-2 in supernatant (ELISA), 5KC T cells with CD8αβ and the TCR + DC2.4 cells + graded peptide: EC50 [left graph] in [8], in experiment [9] and in experiment [10] was over 50000 nM each time.
